Where “and” joins values, the source holds several entries; their conditions need not be identical. Identical values can stand only once. Like-named read-outs stand apart in the source and are kept apart here.
B1: cTfR: AviTag fused in the N-terminus of the ectodomain of cTfR (amino acid residues 90 to 760 of SEQ ID NO: 2) (receptor)
chain: GSHHHHHHHHGGGGSLNDIFEAQKIEWHGSKGVEPKTECERLAGTESPAREEPEEDFPAAPRLYWDDLKRKLSEKLDTTDFTSTIKLLNENLYVPREAGSQKDENLALYIENQFREFKLSKVWRDQHFVKIQVKDSAQNSVIIVDKNGGLVYLVENPGGYVAYSKAATVTGKLVHANFGTKKDFEDLDSPVNGSIVIVRAGKITFAEKVANAESLNAIGVLIYMDQTKFPIVKADLSFFGHAHLGTGDPYTPGFPSFNHTQFPPSQSSGLPNIPVQTISRAAAEKLFGNMEGDCPSDWKTDSTCKMVTSENKSVKLTVSNVLKETKILNIFGVIKGFVEPDHYVVVGAQRDAWGPGAAKSSVGTALLLKLAQMFSDMVLKDGFQPSRSIIFASWSAGDFGSVGATEWLEGYLSSLHLKAFTYINLDKAVLGTSNFKVSASPLLYTLIEKTMQDVKHPVTGRSLYQDSNWASKVEKLTLDNAAFPFLAYSGIPAVSFCFCEDTDYPYLGTTMDTYKELVERIPELNKVARAAAEVAGQFVIKLTHDTELNLDYERYNSQLLLFLRDLNQYRADVKEMGLSLQWLYSARGDFFRATSRLTTDFRNAEKRDKFVMKKLNDRVMRVEYYFLSPYVSPKESPFRHVFWGSGSHTLSALLESLKLRRQNNSAFNETLFRNQLALATWTIQGAANALSGDVWDIDNEF
modifications: site-specific biotinylation on N-terminal Avitag
notes: Immobilised on streptavidin probes for BLI; also called biotinylated cTfR ectodomain

Tests used:
[1] = biological target: T1, anti-TfR 531v25-Fab-FcOL-GAA; test: BLI (Octet), biotinylated AviTag-TfR ectodomain on streptavidin probes, 1:1 global fit
T1 construct: Monovalent Fab-FcOL with GAA fused to the C-terminus of the Fc polypeptide
From the text: (§1) A 1:1 binding model with global fitting was applied after double subtraction for buffer and probe analyte interaction with a 0-90 second association and 0-60 dissociation window.

[2] = biological target: T2, His-tagged cynomolgus monkey TfR ectodomain (cyTFRC_89_760; mature protein) (cynomolgus monkey (Macaca fascicularis), UniProt Q5RDH6 89-760 (Pongo abelii entry)); test: SPR, His-tagged TfR ectodomain captured on anti-His, 1:1 fit
T2 construct: also called cTfR; cTfR ectodomain
T2 chain: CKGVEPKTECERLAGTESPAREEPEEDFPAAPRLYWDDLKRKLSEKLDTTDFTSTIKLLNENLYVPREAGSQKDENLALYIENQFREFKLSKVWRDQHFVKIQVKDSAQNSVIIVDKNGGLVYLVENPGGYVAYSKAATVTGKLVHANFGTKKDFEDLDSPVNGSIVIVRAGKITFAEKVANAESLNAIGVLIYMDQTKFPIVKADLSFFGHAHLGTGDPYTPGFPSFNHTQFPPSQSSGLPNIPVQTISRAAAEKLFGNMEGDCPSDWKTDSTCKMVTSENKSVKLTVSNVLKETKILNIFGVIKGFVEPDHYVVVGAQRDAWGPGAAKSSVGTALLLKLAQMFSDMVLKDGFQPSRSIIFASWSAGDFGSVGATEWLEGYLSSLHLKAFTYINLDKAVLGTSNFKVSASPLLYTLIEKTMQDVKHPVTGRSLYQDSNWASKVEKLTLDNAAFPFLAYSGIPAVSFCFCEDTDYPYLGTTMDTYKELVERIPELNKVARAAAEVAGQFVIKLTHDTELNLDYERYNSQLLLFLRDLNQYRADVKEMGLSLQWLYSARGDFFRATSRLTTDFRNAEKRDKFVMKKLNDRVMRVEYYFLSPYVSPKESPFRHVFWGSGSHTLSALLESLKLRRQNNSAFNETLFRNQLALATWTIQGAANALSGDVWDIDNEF
Procedure: (§2) Binding of the humanized Fab variants to human, cynomolgus and mouse TfR was assessed using SPR at pH 7.4. Experiments were run on a Bruker MASS-2 instrument with HBS-EP+ as running buffer and sample diluent (Cytiva Life Sciences, #BR100826). HCA sensor chips (Bruker, #1862614) were immobilized with anti-His antibody (His capture kit, Cytiva Life Sciences, #28995056) following manufacturer's instructions. About 10,000 RU of anti-His was obtained. His-tagged hTfR ectodomain (SEQ ID NO: 39), cTfR ectodomain (SEQ ID NO: 40) or mouse TfR ectodomain (SEQ ID NO: 41) (5 μg/ml) was captured for 1 min at 10 μL/min. Concentration series of the humanized Fab variants were then injected for 4 min at 30 μL/min over hTfR surfaces and dissociation was monitored for 5 min. Surface was regenerated with one 1 min pulse of 10 mM glycine-HCl at pH 1.5.

[3] = biological target: T3, His-tagged human TfR ectodomain (hTFRC_89-760_G142S; mature protein) (human, UniProt P02786 89-760); test: as above
T3 construct: It carries the G142S haplotype; also called hTfR ectodomain
Procedure: as §2

[4] = biological target: T4, hTfR: AviTag fused to the N-terminus of the ectodomain of human TfR (residues 90 to 760 of SEQ ID NO: 1) (human, UniProt P02786 90-760, site-specific biotinylation on N-terminal Avitag); test: BLI, immobilised hTfR pre-saturated with 500 nM human holo-transferrin (competitor)
T4 construct: also called biotinylated hTfR ectodomain
From the text: as §1, with “window. […] A 1:1 binding model with global fitting was applied after double subtraction for buffer and probe analyte interaction.” for “window.”

[5] = biological target: T4, hTfR: AviTag fused to the N-terminus of …; test: BLI (Octet), biotinylated AviTag-TfR ectodomain on streptavidin probes, 1:1 global fit
From the text: as §1

[6] = biological target: B1; test: as above
From the text: as §1

[7] = biological target: B1; test: BLI; KD on cTfR against KD on hTfR
From the text: as §1

[8] = biological target: T4, hTfR: AviTag fused to the N-terminus of …; test: BLI (Octet), biotinylated AviTag-TfR ectodomain on streptavidin probes, 1:1 global fit; remark: listed apart in the source
From the text: as §1

[9] = biological target: B1; test: as above
From the text: as §1

[10] = biological target: T4, hTfR: AviTag fused to the N-terminus of …; test: BLI, immobilised AviTag-hTfR ectodomain, no saturation
From the text: as §1, with “window. […] A 1:1 binding model with global fitting was applied after double subtraction for buffer and probe analyte interaction.” for “window.”

[11] = biological target: B1; test: BLI; KD on cTfR against KD on hTfR
From the text: as §1

B1
Kd [1]: 69.9 nM

B2: 531v25Fab-FcOL (other)
heavy: QVQLVQSGAEVKKPGASVKVSCKASGYTFTRYYLNWVRQAPGQGLEWIGMIDPSVSETHYAQKFQGRATLTVDKSTSTAYMELSSLRSEDTAVYYCSQIRLPYYYAMDSWGQGTTVTVSSASTKGPSVFPLAPSSKSTSGGTAALGCLVKDYFPEPVTVSWNSGALTSGVHTFPAVLQSSGLYSLSSVVTVPSSSLGTQTYICNVNHKPSNTKVDKKVEPKSCDKTHTCPPCPAPELLGGPSVFLFPPKPKDTLMISRTPEVTCVVVDVSHEDPEVKFNWYVDGVEVHNAKTKPREEQYNNASRVVSVLTVLHQDWLNGKEYKCKVSNKALPAPIEKTISKAKGQPREPQVCTLPPSRDELTKNQVSLSCAVKGFYPSDIAVEWESNGQPENNYKTTPPVLDSDGSFFLVSKLTVDKSRWQQGNVFSCSVMHEALHNRFTQKSLSLSPG
light: not shown
chain: DKTHTCPPCPAPELLGGPSVFLFPPKPKDTLMISRTPEVTCVVVDVSHEDPEVKFNWYVDGVEVHNAKTKPREEQYNNASRVVSVLTVLHQDWLNGKEYKCKVSNKALPAPIEKTISKAKGQPREPQVYTLPPCRDELTKNQVSLWCLVKGFYPSDIAVEWESNGQPENNYKTTPPVLDSDGSFFLYSKLTVDKSRWQQGNVFSCSVMHEALHNHYTQKSLSLSPG
notes: Monovalent heterotrimer; It has a full IgG1 heavy chain (NNAS, hole, RF), a kappa light chain and an Fc polypeptide (knob) that dimerizes with the heavy chain
Kd [2]: 124 nM and 140 nM and 109 nM | Kd [3]: 11.8 nM and 15 nM and 8.5 nM | Kd [4]: 44 nM | Kd [5]: 22.1 nM | Kd [6]: 103 nM | Cynomolgus/human KD ratio [7]: 4.7 | Kd [8]: 22.1 nM | Kd [9]: 103 nM | Kd [10]: 22.1 nM | Cynomolgus/human KD ratio [11]: 4.7
